The values that follow come from US6710030B1, “Contortrostain (CN) and methods for its use in preventing metastasis and other conditions” (University of Southern California, priority 1993, dated 2004).

For assay [1], the system named is MDA-MB-435 cells. In words: Adhesion of MDA-MB-435 cells to immobilized ECM proteins. The assay is classed as cell-based, human. The method, then: The effect of CN on binding of highly metastatic human breast cancer cells, MDA-MB-435 cell line, to ECM proteins was examined. Human fibronectin and vitronectin were immobilized in the wells of 96-well microtiter plates. […] In a variation of the above experiments, CN was immobilized. […] Referring to FIGS. 12 and 13, varying concentrations of GRGDSP (FIG. 12) or EDTA (FIG. 13) were used to inhibit binding of human mammary carcinoma cells to immobilized CN. CN was at 0.1 μg/well. The vertical line at each data point indicates the y-axis error bar. All experiments were conducted as three sets of triplicates for each data point.

For assay [2], the system named is MDA-MB-435 cells. In words: Invasion of MDA-MB-435 cells through Matrigel-coated invasion chamber. The assay is classed as cell-based, human. The conditions noted are these: 48 hrs. The method, then:
2.5×10^3 MDA-MB-435 cells treated with various concentration of CN were allowed to migrate across the Matrigel layer for 48 hrs. Assays at each CN concentration were performed in triplicate. Cells invaded through the Matrigel filter were fixed and stained. Invaded cells were quantitated with microscope by the mean of cell numbers in three randomly selected vision field.

Assay [3] deals with αvβ5 293 cells. The assay is described as follows: Phosphotyrosine immunoblot, 293 cells expressing αvβ5. The assay is classed as cell-based, human. The conditions noted are these: 10 min. The procedure: Cell culture, preparation and stimulation—T24 cells were maintained in RPMI 1640 medium containing 5% fetal bovine serum, and MDA-MB-435 and 293 cells were maintained in Dulbecco's modified Eagle's medium with 10% serum at 37° C. in 5% CO2. Cells were washed with phosphate-buffered saline (PBS) and starved in the appropriate serum-free medium for 6 h at 37° C. Cells were detached by brief treatment with 0.05% trypsin/0.02% EDTA in PBS and collected by centrifugation, resuspended in soybean trypsin inhibitor (1 mg/ml in serum-free medium), and washed in 2% bovine serum albumin/serum-free medium. Cells were maintained in suspension for 1 h in 2% bovine serum albumin/serum-free medium at 37° C. with end-over-end agitation. Quiescent cells (3×10^6/ml) were treated with disintegrins or other reagents while in suspension, or were allowed to adhere to Matrigel (Becton Dickinson, Bedford, Mass.) diluted 1:100 with serum-free medium during treatment. […]
Contortrostatin- induced signaling events are mediated by the αvβ3 integrin—The integrinbinding specificities of echistatin and flavoridin have been determined previously (Niewiarowski et al., supra; and Pfaff, M., McLane, M. A., Beviglia, L., Niewiarowski, S., and Timpl, R. (1994) Cell Adhesion and Communication 2, 491-501). […]

In assay [4] the test system is human melanoma M24 met cells. The assay is described as follows: CN binding to human melanoma M24 met cells. An excerpt: The compositions of the present invention also have utility in inhibiting metastasis in melanoma, carcinoma and sarcoma patients. […] Thus, methods and compositions for preventing metastases in melanoma, carcinoma and sarcoma patients are also contemplated as within the scope of the present invention.

Assay [5] relates to chick chorioallantoic membrane. In words: bFGF and VEGF induced angiogenesis in chick chorioallantoic membrane model. The conditions noted are these: in vivo. An excerpt:
Significance: The function of αvβ5 has been indicated by many studies. […] Although αvβ5 participates in the initiation of cell adhesion to vitronectin, unlike αvβ3 which mediates cell migration constitutively, αvβ5 mediates migration only when activated by growth factors, such as insulin-like growth factor-1 (IGF-1), epidermal growth factor (EGF), and transforming growth factor-α (TGF-α).

The subject of assay [6] is c-Ha-ras transfected rat embryo (4R) cells. The note with it: cited from earlier work.
Assay [7] relates to T24 cells. In words: Phosphotyrosine immunoblot, T24 cells. Type of assay: cell-based, human. The method, then:
Cell culture, preparation and stimulation—T24 cells were maintained in RPMI 1640 medium containing 5% fetal bovine serum, and MDA-MB-435 and 293 cells were maintained in Dulbecco's modified Eagle's medium with 10% serum at 37° C. in 5% CO2. Cells were washed with phosphate-buffered saline (PBS) and starved in the appropriate serum-free medium for 6 h at 37° C. Cells were detached by brief treatment with 0.05% trypsin/0.02% EDTA in PBS and collected by centrifugation, resuspended in soybean trypsin inhibitor (1 mg/ml in serum-free medium), and washed in 2% bovine serum albumin/serum-free medium. Cells were maintained in suspension for 1 h in 2% bovine serum albumin/serum-free medium at 37° C. with end-over-end agitation. Quiescent cells (3×10^6/ml) were treated with disintegrins or other reagents while in suspension, or were allowed to adhere to Matrigel (Becton Dickinson, Bedford, Mass.) diluted 1:100 with serum-free medium during treatment.
Lysate preparation and immunoprecipitation—Suspended and adherent cells were washed twice with cold PBS and lysed in cold lysis buffer (50 mM Tris, pH 8.0, 150 mM NaCl, 1% Nonidet P-40, 0.5% deoxycholate, 0.1% SDS, protease inhibitor cocktail, 1 mM sodium pyrophosphate, 1 mM sodium orthovanadate, 50 mM sodium fluoride). After 10-15 min incubation on ice, insoluble material was removed by centrifugation at 14,000 RPM in a microcentrifuge for 15 min. Supernatants were collected and total protein concentrations standardized by the BCA protein assay (Pierce, Rockford, Ill.). Immunoprecipitation was carried out by incubating whole cell lysates (200 μg total protein) with 1.25 μg anti-FAK or anti-CAS mAb 4-6 h at 4° C. followed by 20 μl protein G-agarose overnight at 4° C. Immunoprecipitates were washed 4 times in lysis buffer without inhibitors and dissociated by adding SDS-PAGE sample buffer and boiling 5 min. Whole cell lysates (30 μg total protein) or immunoprecipitates were resolved by 7.5% SDS-polyacrylamide gel electrophoresis and transferred to nitrocellulose membranes. […]
In general terms: A western blot detects proteins with antibodies after separation by electrophoresis.

Read-outs that look alike come from different tables or passages of the source.

B1: contortrostatin (protein)
chain: DAPANPCCDAATCKLTTGSQCADGLCCDQCKFMKEGTVCRRARGDDLDDYCNGISAGCPRNPFHA
The IC50 is the point on the concentration scale where inhibition reaches its midpoint. The term Kd denotes the concentration at which binding is half-saturated. B1: in assay [1], the “effect on adhesion to human or rat type I collagen” value is “minimal effect”. Moreover, the IC50 in assay [1] (immobilized human fibronectin, read-out: IC50 for adhesion to fibronectin) is 18 nM; in assay [1] (immobilized human vitronectin, read-out: IC50 for adhesion to vitronectin), 1.5 nM. Also, the “invasion of synthetic basement membrane by MDA-MB-435 cells” value in assay [2] was “inhibitory effect”. For the same molecule, in assay [3], the tyrosine phosphorylation result is listed as “no response”. In assay [4], the “number of sites, high affinity site” value is 96,000 (±39,000) sites per cell. The “number of sites, lower affinity site” value in assay [4] was 480,000 (±90,000) sites per cell. The Kd in assay [4] (read-out: Kd, lower affinity site) was 41 nM; in assay [4] (read-out: dissociation constant (Kd), high affinity site), 1.1 nM. For the same molecule, the “angiogenesis induced by bFGF and VEGF” value in assay [5] is on record as “inhibits angiogenesis”. The “Inhibition of 4R cell binding to fibronectin” value in assay [6] (CN at 1 μg/ml) is reported as 46%; in assay [6] (CN at 5 μg/ml) it was 88%. In addition, the “tyrosine phosphorylation in cells adherent to Matrigel” value in assay [7] was “significant additional increase”. The “tyrosine phosphorylation at high concentration” value in assay [7] (1000 nM) is on record as “reduced levels of tyrosine phosphorylation”. Besides, in assay [7] (suspended cells), the “tyrosine phosphorylation of 120-140 kDa proteins” value was “also observed”.
